Test results published in patent publication US20140087995A1 (published 2014).
Numbered stars: 1 amine (or outer) side, 2 acyl side, 3 side chain; on linkers, the order of the positions; unused ones are H or OH. Bridge positions count the residues as written; N and C are the ends. Side chains are listed from the residue outwards. Ends that are not written are not given here. * marks the point of attachment. C20 diacid = O=C(O)CCCCCCCCCCCCCCCCCCC(=O)*; γGlu = O=C(O)[C@H](CCC(=O)[*:2])N[*:1]; AEEA = NCCOCCOCC(=O)O

Target: T1, human calcitonin receptor (human, UniProt P30988 25-474)
T1 sequence (looked up): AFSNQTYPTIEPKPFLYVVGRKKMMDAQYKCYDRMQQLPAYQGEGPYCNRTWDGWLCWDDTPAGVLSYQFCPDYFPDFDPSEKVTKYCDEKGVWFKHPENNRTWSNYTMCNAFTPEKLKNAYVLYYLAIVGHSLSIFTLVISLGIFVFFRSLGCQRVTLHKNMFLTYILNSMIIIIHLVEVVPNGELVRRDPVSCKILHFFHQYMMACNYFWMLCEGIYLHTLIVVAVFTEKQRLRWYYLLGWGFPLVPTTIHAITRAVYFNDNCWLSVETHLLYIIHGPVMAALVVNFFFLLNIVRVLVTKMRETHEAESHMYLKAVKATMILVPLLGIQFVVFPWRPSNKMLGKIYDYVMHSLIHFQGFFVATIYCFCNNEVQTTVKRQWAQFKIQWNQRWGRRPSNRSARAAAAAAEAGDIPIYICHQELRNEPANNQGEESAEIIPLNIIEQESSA
Experiment: cell-based or functional assay

B1: N^ε1-[(4S)-4-carboxy-4-[[(4S)-4-carboxy-4-(19-carboxynonadecanoylamino)butanoyl]amino]butanoyl]-[Glu14,Arg17,Pro21,Pro27,Arg34]-h-amylin (peptide)
peptide: K([γGlu-γGlu-C20 diacid])CNTATCATQRLAEFLRHSSPNFGAIPSSTNVGRNTY-NH2
modifications: disulfide 2-7; N-terminus assumed
SMILES: CC[C@H](C)[C@H](NC(=O)[C@H](C)NC(=O)CNC(=O)[C@H](Cc1ccccc1)NC(=O)[C@H](CC(N)=O)NC(=O)[C@@H]1CCCN1C(=O)[C@H](CO)NC(=O)[C@H](CO)NC(=O)[C@H](Cc1c[nH]cn1)NC(=O)[C@H](CCCNC(=N)N)NC(=O)[C@H](CC(C)C)NC(=O)[C@H](Cc1ccccc1)NC(=O)[C@H](CCC(=O)O)NC(=O)[C@H](C)NC(=O)[C@H](CC(C)C)NC(=O)[C@H](CCCNC(=N)N)NC(=O)[C@H](CCC(N)=O)NC(=O)[C@@H](NC(=O)[C@H](C)NC(=O)[C@@H]1CSSC[C@H](NC(=O)[C@@H](N)CCCCNC(=O)CC[C@H](NC(=O)CC[C@H](NC(=O)CCCCCCCCCCCCCCCCCCC(=O)O)C(=O)O)C(=O)O)C(=O)N[C@@H](CC(N)=O)C(=O)N[C@@H]([C@@H](C)O)C(=O)N[C@@H](C)C(=O)N[C@@H]([C@@H](C)O)C(=O)N1)[C@@H](C)O)C(=O)N1CCC[C@H]1C(=O)N[C@@H](CO)C(=O)N[C@@H](CO)C(=O)N[C@H](C(=O)N[C@@H](CC(N)=O)C(=O)N[C@H](C(=O)NCC(=O)N[C@@H](CCCNC(=N)N)C(=O)N[C@@H](CC(N)=O)C(=O)N[C@H](C(=O)N[C@@H](Cc1ccc(O)cc1)C(N)=O)[C@@H](C)O)C(C)C)[C@@H](C)O
notes: also called compound 88
- hCTR funct. EC50: 6.55 nM

B2: N^ε1N^ε1-[(4S)-4-carboxy-4-(19-carboxynonadecanoylamino)butanoyl]-[His14,Arg17,Pro21,Pro27,Pro34]-h-amylin (peptide)
peptide: K([γGlu-C20 diacid])CNTATCATQRLAHFLRHSSPNFGAIPSSTNVGPNTY-NH2
modifications: disulfide 2-7; N-terminus assumed
SMILES: CC[C@H](C)[C@H](NC(=O)[C@H](C)NC(=O)CNC(=O)[C@H](Cc1ccccc1)NC(=O)[C@H](CC(N)=O)NC(=O)[C@@H]1CCCN1C(=O)[C@H](CO)NC(=O)[C@H](CO)NC(=O)[C@H](Cc1c[nH]cn1)NC(=O)[C@H](CCCNC(=N)N)NC(=O)[C@H](CC(C)C)NC(=O)[C@H](Cc1ccccc1)NC(=O)[C@H](Cc1c[nH]cn1)NC(=O)[C@H](C)NC(=O)[C@H](CC(C)C)NC(=O)[C@H](CCCNC(=N)N)NC(=O)[C@H](CCC(N)=O)NC(=O)[C@@H](NC(=O)[C@H](C)NC(=O)[C@@H]1CSSC[C@H](NC(=O)[C@@H](N)CCCCNC(=O)CC[C@H](NC(=O)CCCCCCCCCCCCCCCCCCC(=O)O)C(=O)O)C(=O)N[C@@H](CC(N)=O)C(=O)N[C@@H]([C@@H](C)O)C(=O)N[C@@H](C)C(=O)N[C@@H]([C@@H](C)O)C(=O)N1)[C@@H](C)O)C(=O)N1CCC[C@H]1C(=O)N[C@@H](CO)C(=O)N[C@@H](CO)C(=O)N[C@H](C(=O)N[C@@H](CC(N)=O)C(=O)N[C@H](C(=O)NCC(=O)N1CCC[C@H]1C(=O)N[C@@H](CC(N)=O)C(=O)N[C@H](C(=O)N[C@@H](Cc1ccc(O)cc1)C(N)=O)[C@@H](C)O)C(C)C)[C@@H](C)O
notes: also called compound 67
- hCTR funct. EC50: 0.354 nM

B3: N^ε1-[(4S)-4-carboxy-4-[[(4S)-4-carboxy-4-(19-carboxynonadecanoylamino)butanoyl]amino]butanoyl]-[Glu14,Arg17,Pro21,Pro27,Arg35]-h-amylin (peptide)
peptide: K([γGlu-γGlu-C20 diacid])CNTATCATQRLAEFLRHSSPNFGAIPSSTNVGSRTY-NH2
modifications: disulfide 2-7; N-terminus assumed
SMILES: CC[C@H](C)[C@H](NC(=O)[C@H](C)NC(=O)CNC(=O)[C@H](Cc1ccccc1)NC(=O)[C@H](CC(N)=O)NC(=O)[C@@H]1CCCN1C(=O)[C@H](CO)NC(=O)[C@H](CO)NC(=O)[C@H](Cc1c[nH]cn1)NC(=O)[C@H](CCCNC(=N)N)NC(=O)[C@H](CC(C)C)NC(=O)[C@H](Cc1ccccc1)NC(=O)[C@H](CCC(=O)O)NC(=O)[C@H](C)NC(=O)[C@H](CC(C)C)NC(=O)[C@H](CCCNC(=N)N)NC(=O)[C@H](CCC(N)=O)NC(=O)[C@@H](NC(=O)[C@H](C)NC(=O)[C@@H]1CSSC[C@H](NC(=O)[C@@H](N)CCCCNC(=O)CC[C@H](NC(=O)CC[C@H](NC(=O)CCCCCCCCCCCCCCCCCCC(=O)O)C(=O)O)C(=O)O)C(=O)N[C@@H](CC(N)=O)C(=O)N[C@@H]([C@@H](C)O)C(=O)N[C@@H](C)C(=O)N[C@@H]([C@@H](C)O)C(=O)N1)[C@@H](C)O)C(=O)N1CCC[C@H]1C(=O)N[C@@H](CO)C(=O)N[C@@H](CO)C(=O)N[C@H](C(=O)N[C@@H](CC(N)=O)C(=O)N[C@H](C(=O)NCC(=O)N[C@@H](CO)C(=O)N[C@@H](CCCNC(=N)N)C(=O)N[C@H](C(=O)N[C@@H](Cc1ccc(O)cc1)C(N)=O)[C@@H](C)O)C(C)C)[C@@H](C)O
notes: also called compound 89
- hCTR funct. EC50: 11.2 nM

B4: N^ε1-[(4S)-4-carboxy-4-(19-carboxynonadecanoylamino)butanoyl]-[His14,Arg17,Pro21,Pro27]-h-amylin (peptide)
peptide: K([γGlu-C20 diacid])CNTATCATQRLAHFLRHSSPNFGAIPSSTNVGSNTY-NH2
modifications: disulfide 2-7; N-terminus assumed
SMILES: CC[C@H](C)[C@H](NC(=O)[C@H](C)NC(=O)CNC(=O)[C@H](Cc1ccccc1)NC(=O)[C@H](CC(N)=O)NC(=O)[C@@H]1CCCN1C(=O)[C@H](CO)NC(=O)[C@H](CO)NC(=O)[C@H](Cc1c[nH]cn1)NC(=O)[C@H](CCCNC(=N)N)NC(=O)[C@H](CC(C)C)NC(=O)[C@H](Cc1ccccc1)NC(=O)[C@H](Cc1c[nH]cn1)NC(=O)[C@H](C)NC(=O)[C@H](CC(C)C)NC(=O)[C@H](CCCNC(=N)N)NC(=O)[C@H](CCC(N)=O)NC(=O)[C@@H](NC(=O)[C@H](C)NC(=O)[C@@H]1CSSC[C@H](NC(=O)[C@@H](N)CCCCNC(=O)CC[C@H](NC(=O)CCCCCCCCCCCCCCCCCCC(=O)O)C(=O)O)C(=O)N[C@@H](CC(N)=O)C(=O)N[C@@H]([C@@H](C)O)C(=O)N[C@@H](C)C(=O)N[C@@H]([C@@H](C)O)C(=O)N1)[C@@H](C)O)C(=O)N1CCC[C@H]1C(=O)N[C@@H](CO)C(=O)N[C@@H](CO)C(=O)N[C@H](C(=O)N[C@@H](CC(N)=O)C(=O)N[C@H](C(=O)NCC(=O)N[C@@H](CO)C(=O)N[C@@H](CC(N)=O)C(=O)N[C@H](C(=O)N[C@@H](Cc1ccc(O)cc1)C(N)=O)[C@@H](C)O)C(C)C)[C@@H](C)O
notes: also called compound 70
- hCTR funct. EC50: 0.715 nM

B5: N^ε1-[2-[2-[2-(19-carboxynonadecanoylamino)ethoxy]ethoxy]acetyl]-[His14,Arg17,Pro21,Pro27]-h-amylin (peptide)
peptide: K([AEEA-C20 diacid])CNTATCATQRLAHFLRHSSPNFGAIPSSTNVGSNTY-NH2
modifications: disulfide 2-7; N-terminus assumed
SMILES: CC[C@H](C)[C@H](NC(=O)[C@H](C)NC(=O)CNC(=O)[C@H](Cc1ccccc1)NC(=O)[C@H](CC(N)=O)NC(=O)[C@@H]1CCCN1C(=O)[C@H](CO)NC(=O)[C@H](CO)NC(=O)[C@H](Cc1c[nH]cn1)NC(=O)[C@H](CCCNC(=N)N)NC(=O)[C@H](CC(C)C)NC(=O)[C@H](Cc1ccccc1)NC(=O)[C@H](Cc1c[nH]cn1)NC(=O)[C@H](C)NC(=O)[C@H](CC(C)C)NC(=O)[C@H](CCCNC(=N)N)NC(=O)[C@H](CCC(N)=O)NC(=O)[C@@H](NC(=O)[C@H](C)NC(=O)[C@@H]1CSSC[C@H](NC(=O)[C@@H](N)CCCCNC(=O)COCCOCCNC(=O)CCCCCCCCCCCCCCCCCCC(=O)O)C(=O)N[C@@H](CC(N)=O)C(=O)N[C@@H]([C@@H](C)O)C(=O)N[C@@H](C)C(=O)N[C@@H]([C@@H](C)O)C(=O)N1)[C@@H](C)O)C(=O)N1CCC[C@H]1C(=O)N[C@@H](CO)C(=O)N[C@@H](CO)C(=O)N[C@H](C(=O)N[C@@H](CC(N)=O)C(=O)N[C@H](C(=O)NCC(=O)N[C@@H](CO)C(=O)N[C@@H](CC(N)=O)C(=O)N[C@H](C(=O)N[C@@H](Cc1ccc(O)cc1)C(N)=O)[C@@H](C)O)C(C)C)[C@@H](C)O
notes: also called compound 90
- hCTR funct. EC50: 0.236 nM

B6: N^ε1-[(4S)-4-carboxy-4-[[(4S)-4-carboxy-4-(19-carboxynonadecanoylamino)butanoyl]amino]butanoyl]-[His14,Arg17,Pro21,Pro27]-h-amylin (peptide)
peptide: K([γGlu-γGlu-C20 diacid])CNTATCATQRLAHFLRHSSPNFGAIPSSTNVGSNTY-NH2
modifications: disulfide 2-7; N-terminus assumed
SMILES: CC[C@H](C)[C@H](NC(=O)[C@H](C)NC(=O)CNC(=O)[C@H](Cc1ccccc1)NC(=O)[C@H](CC(N)=O)NC(=O)[C@@H]1CCCN1C(=O)[C@H](CO)NC(=O)[C@H](CO)NC(=O)[C@H](Cc1c[nH]cn1)NC(=O)[C@H](CCCNC(=N)N)NC(=O)[C@H](CC(C)C)NC(=O)[C@H](Cc1ccccc1)NC(=O)[C@H](Cc1c[nH]cn1)NC(=O)[C@H](C)NC(=O)[C@H](CC(C)C)NC(=O)[C@H](CCCNC(=N)N)NC(=O)[C@H](CCC(N)=O)NC(=O)[C@@H](NC(=O)[C@H](C)NC(=O)[C@@H]1CSSC[C@H](NC(=O)[C@@H](N)CCCCNC(=O)CC[C@H](NC(=O)CC[C@H](NC(=O)CCCCCCCCCCCCCCCCCCC(=O)O)C(=O)O)C(=O)O)C(=O)N[C@@H](CC(N)=O)C(=O)N[C@@H]([C@@H](C)O)C(=O)N[C@@H](C)C(=O)N[C@@H]([C@@H](C)O)C(=O)N1)[C@@H](C)O)C(=O)N1CCC[C@H]1C(=O)N[C@@H](CO)C(=O)N[C@@H](CO)C(=O)N[C@H](C(=O)N[C@@H](CC(N)=O)C(=O)N[C@H](C(=O)NCC(=O)N[C@@H](CO)C(=O)N[C@@H](CC(N)=O)C(=O)N[C@H](C(=O)N[C@@H](Cc1ccc(O)cc1)C(N)=O)[C@@H](C)O)C(C)C)[C@@H](C)O
notes: also called compound 92
- hCTR funct. EC50: 2.38 nM
